Results on one substance are retold here after article PMC2500142.

This assay addresses GFP-actin (UniProt P60709). The assay is described as follows: dual color fluorescence cross-correlation spectroscopy.

On to “DsRed-AQP2 (from UniProt P41181 1-271) (natural protein)”, for which the relative cross-correlation amplitude ([Gc(0)-1]/[Gr(0)-1]), apical membrane was determined as 0.33 and the relative cross-correlation amplitude ([Gc(0)-1]/[Gr(0)-1]), subapical region is 0.4.
